In the Human Domainome abundance scans (Beltran et al. 2025):
± gives the uncertainty stated by the source.

B1: Transcription intermediary factor 1-beta, residues 620 to 671; numbered along this chain, Q13263 (parent)
chain: TLDDSATICRVCQKPGDLVMCNQCEFCFHLDCHLPALQDVPGEEWSCSLCHV

Variants of: B1
Test: abundance fitness (aPCA) (normalised: wild type 0, dead -1); higher = more abundant; growth selection in yeast, the domain comes from the species named
Settings: Homo sapiens

Abundance fitness of substitutions, site by site:
E25: V -0.493 ± 0.11 | I -0.298 ± 0.21 | M -0.286 ± 0.28 | Q -0.077 ± 0.19 | K -0.228 ± 0.19 | H -0.578 ± 0.4 | D -0.3 ± 0.26 | G -0.27 ± 0.1 | N -0.822 ± 0.39 | R -0.136 ± 0.12 | T -0.024 ± 0.12 | L -0.134 ± 0.1 | Y -0.061 ± 0.19 | P -0.66 ± 0.24 | W -0.322 ± 0.13 | C -0.052 ± 0.16 | A -0.227 ± 0.12 | F -0.113 ± 0.18 | S 0.059 ± 0.11
Q38: L -0.227 ± 0.09 | Y -0.417 ± 0.17 | E -0.434 ± 0.16 | G -0.181 ± 0.1 | R 0.023 ± 0.091 | T -0.345 ± 0.13 | N 0.082 ± 0.2 | P -0.437 ± 0.15 | C -0.401 ± 0.16 | I 0.079 ± 0.15 | A -0.02 ± 0.1 | V -0.132 ± 0.099 | M -0.443 ± 0.15 | W -0.482 ± 0.12 | K -0.18 ± 0.17 | F -0.39 ± 0.14 | S -0.295 ± 0.099 | H -0.279 ± 0.2
F28: Y -0.09 ± 0.17 | C -0.211 ± 0.15 | G -0.593 ± 0.12 | M -0.318 ± 0.14 | R -0.284 ± 0.093 | N -0.724 ± 0.28 | Q -0.549 ± 0.31 | H -0.346 ± 0.35 | W 0.093 ± 0.11 | T -0.278 ± 0.12 | V -0.227 ± 0.092 | K -0.427 ± 0.23 | D -0.554 ± 0.34 | A -0.098 ± 0.13 | S -0.424 ± 0.12 | E -0.321 ± 0.14 | L -0.393 ± 0.11 | I -0.016 ± 0.16
F26: E 0.04 ± 0.15 | M -0.108 ± 0.2 | C -0.029 ± 0.24 | A -0.063 ± 0.11 | D -0.034 ± 0.22 | L -0.328 ± 0.12 | K 0.155 ± 0.13 | R -0.045 ± 0.097 | I -0.812 ± 0.34 | V -0.33 ± 0.11 | W -0.399 ± 0.13 | T -0.563 ± 0.17 | H -0.374 ± 0.21 | N -0.122 ± 0.21 | S -0.192 ± 0.1 | P -0.993 ± 0.24 | Q 0.082 ± 0.16 | G 0.121 ± 0.1
C27: Y 0.002 ± 0.16
C32: N -0.528 ± 0.25 | R -0.704 ± 0.11 | H -0.501 ± 0.22 | A -0.545 ± 0.14 | T -0.937 ± 0.18 | F -0.959 ± 0.18 | S -0.507 ± 0.13 | Q -0.904 ± 0.26 | V -1.03 ± 0.17 | L -0.925 ± 0.12 | E -0.871 ± 0.24 | W -0.923 ± 0.18 | G -0.652 ± 0.11 | I -0.911 ± 0.2 | P -0.454 ± 0.16 | M -0.952 ± 0.16 | Y -0.45 ± 0.15 | D -0.683 ± 0.18 | K -0.795 ± 0.17
N22: S -0.066 ± 0.12 | P -0.382 ± 0.19 | M -0.337 ± 0.16 | C -0.092 ± 0.22 | K 0.05 ± 0.17 | A -0.232 ± 0.11 | Q -0.116 ± 0.18 | R -0.11 ± 0.12 | G -0.27 ± 0.098 | F -0.281 ± 0.23 | E 0.094 ± 0.15 | T -0.182 ± 0.13 | H -0.449 ± 0.23 | L -0.561 ± 0.11 | I -0.316 ± 0.21
P35: V -0.458 ± 0.088 | A -0.553 ± 0.12 | W -0.799 ± 0.14 | R -0.488 ± 0.11 | E -0.447 ± 0.12 | D -0.447 ± 0.14 | K -0.18 ± 0.16 | M -0.291 ± 0.15 | S -0.128 ± 0.1 | G -0.244 ± 0.096 | L -0.508 ± 0.12 | H -0.431 ± 0.23 | F -0.637 ± 0.17 | Q -0.698 ± 0.2 | N -0.222 ± 0.17 | T -0.552 ± 0.16
M20: P 0.067 ± 0.17 | W -0.73 ± 0.14 | I -0.379 ± 0.2 | D -0.574 ± 0.45 | S -0.112 ± 0.11 | F -0.192 ± 0.15 | E -0.304 ± 0.12 | R 0.003 ± 0.088 | L -0.391 ± 0.11 | G -0.29 ± 0.095 | V -0.322 ± 0.1 | H -0.755 ± 0.32 | N -0.337 ± 0.17 | A -0.312 ± 0.12 | Y -0.296 ± 0.19 | C -0.225 ± 0.15 | K -0.354 ± 0.2
Q23: T -0.066 ± 0.17 | N -0.014 ± 0.21 | S -0.089 ± 0.11 | I -0.373 ± 0.21 | P -0.93 ± 0.21 | R -0.172 ± 0.12 | L -0.199 ± 0.1 | C -0.043 ± 0.13 | Y -0.336 ± 0.21 | W -0.383 ± 0.13 | V -0.214 ± 0.1 | M -0.371 ± 0.16 | F -0.292 ± 0.26 | A -0.395 ± 0.12 | D -0.234 ± 0.4 | H -0.486 ± 0.29 | K -0.113 ± 0.21
A36: S 0.079 ± 0.11 | N -0.384 ± 0.31 | P 0.077 ± 0.15 | Y -0.499 ± 0.2 | D -0.394 ± 0.16 | K -0.183 ± 0.15 | W -0.527 ± 0.17 | T -0.161 ± 0.17 | R 0.058 ± 0.11 | G -0.116 ± 0.087 | E 0.034 ± 0.13 | C -0.713 ± 0.18 | V 0.06 ± 0.093 | I -0.449 ± 0.19 | H -0.168 ± 0.19 | L -0.173 ± 0.11 | Q -0.633 ± 0.32
C24: N -1.19 ± 0.4 | G -0.541 ± 0.12 | I -1.07 ± 0.36 | T -0.842 ± 0.18 | F -0.965 ± 0.22 | R -0.685 ± 0.099 | D -0.769 ± 0.27 | V -1.08 ± 0.17 | W -1.04 ± 0.19 | H -1.01 ± 0.24 | A -0.666 ± 0.14 | P -0.928 ± 0.28 | S -1 ± 0.17 | K -0.894 ± 0.27 | M -0.918 ± 0.25
C21: L -0.837 ± 0.13 | I -0.807 ± 0.29 | H -0.445 ± 0.25 | G -0.871 ± 0.11 | E -0.434 ± 0.16 | D -0.575 ± 0.18 | M -1.24 ± 0.35 | W -1.14 ± 0.26 | A -0.995 ± 0.16 | N -0.565 ± 0.21 | S -0.968 ± 0.15 | V -0.826 ± 0.11 | Q -0.8 ± 0.35 | P -0.697 ± 0.36 | F -0.962 ± 0.26 | T -0.95 ± 0.27
L34: H 0.157 ± 0.17 | N 0.543 ± 0.15 | Y 0.062 ± 0.15 | S 0.283 ± 0.093 | G 0.098 ± 0.08 | W -0.328 ± 0.11 | I -0.305 ± 0.17 | V 0.062 ± 0.095 | K 0.13 ± 0.15 | Q 0.05 ± 0.15 | E 0.188 ± 0.13 | D 0.325 ± 0.14 | T -0.065 ± 0.17 | F 0.03 ± 0.15 | C 0.274 ± 0.094 | P 0.036 ± 0.18 | A 0.164 ± 0.13
H33: I -0.325 ± 0.23 | T -0.235 ± 0.14 | Y -0.294 ± 0.14 | Q 0.042 ± 0.15 | D 0.086 ± 0.12 | S 0.012 ± 0.1 | M -0.205 ± 0.15 | N -0.139 ± 0.17 | G -0.159 ± 0.083 | W -0.444 ± 0.13 | P -0.344 ± 0.14 | K -0.218 ± 0.17 | C 0.217 ± 0.14 | E 0.2 ± 0.15 | A -0.013 ± 0.1 | L -0.117 ± 0.098 | V 0.033 ± 0.098 | R -0.109 ± 0.095
D31: R -0.324 ± 0.12 | V -0.254 ± 0.093 | G -0.004 ± 0.1 | M -0.365 ± 0.17 | N 0.175 ± 0.12 | C -0.709 ± 0.2 | I -0.501 ± 0.18 | F -0.558 ± 0.16 | H -0.024 ± 0.15 | A -0.257 ± 0.12 | Q 0.04 ± 0.21 | T -0.308 ± 0.12 | P -0.175 ± 0.16 | S -0.317 ± 0.11 | E -0.202 ± 0.14 | W -0.921 ± 0.32 | K -0.528 ± 0.2
V19: M -0.157 ± 0.15 | I 0.008 ± 0.23 | C -0.536 ± 0.21 | R -0.364 ± 0.11 | E -0.519 ± 0.17 | L -0.171 ± 0.1 | Q -0.402 ± 0.27 | W 0 ± 0.12 | N -0.556 ± 0.34 | G -0.852 ± 0.14 | A -0.58 ± 0.14 | H 0.116 ± 0.3 | P -0.943 ± 0.33 | D 0.025 ± 0.33 | S -0.613 ± 0.16 | T -0.314 ± 0.16 | F -0.311 ± 0.15
D39: H -0.268 ± 0.21 | C -0.212 ± 0.15 | K -0.272 ± 0.21 | F -0.214 ± 0.17 | A -0.175 ± 0.16 | G -0.235 ± 0.098 | I -0.121 ± 0.16 | E 0.287 ± 0.16
H29: E -0.919 ± 0.23 | Y -0.921 ± 0.26 | N -0.504 ± 0.19 | F -0.864 ± 0.27 | G -0.899 ± 0.18 | V -0.952 ± 0.15 | D -0.883 ± 0.29 | T -0.637 ± 0.17 | M -0.967 ± 0.19 | Q -0.957 ± 0.25 | R -0.749 ± 0.13 | K -0.807 ± 0.28 | C -0.67 ± 0.2 | P -1.34 ± 0.34 | I -1.12 ± 0.27 | L -1.01 ± 0.15 | A -1.01 ± 0.21 | W -0.908 ± 0.28
L37: F -0.344 ± 0.2 | N -0.334 ± 0.35 | R -0.106 ± 0.096 | K -0.421 ± 0.2 | C -0.021 ± 0.12 | S -0.071 ± 0.11 | E -0.499 ± 0.17 | M -0.083 ± 0.14 | W 0.118 ± 0.13 | H -0.215 ± 0.24 | V -0.094 ± 0.096 | Q -0.108 ± 0.17 | T 0.035 ± 0.14 | P -0.138 ± 0.14 | D -0.278 ± 0.21 | Y -0.27 ± 0.18
L30: E -0.196 ± 0.17 | Q -0.432 ± 0.27 | I -0.479 ± 0.22 | F -0.609 ± 0.19 | G -0.375 ± 0.12 | K -0.312 ± 0.24 | S -0.145 ± 0.13 | D -0.755 ± 0.2 | C -0.135 ± 0.16 | H -0.194 ± 0.19 | W -0.271 ± 0.12 | N -0.264 ± 0.16 | M -0.299 ± 0.16 | A -0.116 ± 0.16 | R -0.02 ± 0.098 | P -0.139 ± 0.17 | T -0.292 ± 0.19
